Experimental data reported in the supplement of paper PMC9112550, “Optimization of the antimicrobial peptide Bac7 by deep mutational scanning” (BMC Biology, 2022).

System: Escherichia coli TOP10
Test: shrunken log2 fold change of peptide-encoding DNA abundance (4.5 h post-induction vs induction); higher = less antimicrobial activity (less host growth inhibition)
Conditions: time post-induction: 4.5 h; library: site-saturation at positions 5, 18, 19, 20
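Further: peptides expressed intracellularly from a pBAD plasmid library in pooled LB shake-flask culture, induced with 0.3% L-arabinose, DNA abundance read by NGS, three biological replicates, DESeq2 with apeglm shrinkage.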

Sequence	shrunken log2 fold change
RRIRIRPPRLPRPRPRPFVWPRP	-0.157
RRIRTRPPRLPRPRPRPLPEPRP	0.126
RRIRLRPPRLPRPRPRPPLMPRP	0.313
RRIRARPPRLPRPRPRPYVLPRP	-0.347
RRIRFRPPRLPRPRPRPPIFPRP	-0.0711
RRIRARPPRLPRPRPRPGRKPRP	0.43
RRIRFRPPRLPRPRPRPRWPPRP	0.327
RRIRMRPPRLPRPRPRPHVPPRP	0.107
RRIRHRPPRLPRPRPRPNSSPRP	-0.203
RRIRKRPPRLPRPRPRPMRSPRP	0.638
RRIRDRPPRLPRPRPRPMSAPRP	-0.177
RRIRTRPPRLPRPRPRPDDRPRP	0.0143
RRIRDRPPRLPRPRPRPFEWPRP	0.109
RRIRRRPPRLPRPRPRPHSRPRP	0.163
RRIRDRPPRLPRPRPRPKWAPRP	0.0411
RRIRIRPPRLPRPRPRPRPTPRP	0.152
RRIRNRPPRLPRPRPRPKHWPRP	0.0916
RRIRVRPPRLPRPRPRPTDWPRP	0.255
RRIRSRPPRLPRPRPRPYEGPRP	-0.213
RRIRYRPPRLPRPRPRPFTWPRP	-1.51
RRIRTRPPRLPRPRPRPMLHPRP	0.111
RRIRDRPPRLPRPRPRPYGQPRP	-0.0816
RRIRMRPPRLPRPRPRPVHGPRP	0.32
RRIRERPPRLPRPRPRPRQVPRP	-0.0483
RRIRRRPPRLPRPRPRPCVNPRP	-0.0549

Sequence	shrunken log2 fold change
RRIRTRPPRLPRPRPRPGGIPRP	0.0232
RRIRCRPPRLPRPRPRPPRDPRP	0.84
RRIRDRPPRLPRPRPRPKCPPRP	0.149
RRIRCRPPRLPRPRPRPASDPRP	-0.0092
RRIRNRPPRLPRPRPRPPAYPRP	0.0856
RRIRWRPPRLPRPRPRPCAIPRP	0.027
RRIRYRPPRLPRPRPRPEKQPRP	-0.000925
RRIRDRPPRLPRPRPRPPGMPRP	0.201
RRIRHRPPRLPRPRPRPMTYPRP	-0.19
RRIRSRPPRLPRPRPRPRNFPRP	0.146
RRIRVRPPRLPRPRPRPNNWPRP	-0.183
RRIRKRPPRLPRPRPRPHLHPRP	0.265
RRIRLRPPRLPRPRPRPGDPPRP	0.251
RRIRLRPPRLPRPRPRPFVYPRP	-0.476
RRIRDRPPRLPRPRPRPEDQPRP	0.0219
RRIRERPPRLPRPRPRPCCHPRP	-0.603
RRIRTRPPRLPRPRPRPWIRPRP	-0.0303
RRIRWRPPRLPRPRPRPSHNPRP	-0.596
RRIRIRPPRLPRPRPRPWTSPRP	-0.171
RRIRIRPPRLPRPRPRPTYCPRP	-0.214
RRIRPRPPRLPRPRPRPHVPPRP	3.25
RRIRYRPPRLPRPRPRPRMLPRP	-1.08
RRIRRRPPRLPRPRPRPMMIPRP	-0.185
RRIRCRPPRLPRPRPRPFNFPRP	-0.813
RRIRVRPPRLPRPRPRPTRTPRP	0.495

Sequence	shrunken log2 fold change
RRIRNRPPRLPRPRPRPVNKPRP	-0.19
RRIRLRPPRLPRPRPRPMCQPRP	0.0751
RRIRARPPRLPRPRPRPRWFPRP	0.623
RRIRMRPPRLPRPRPRPWWCPRP	0.0647
RRIRFRPPRLPRPRPRPGAFPRP	-0.162
RRIRWRPPRLPRPRPRPVDAPRP	0.434
RRIRSRPPRLPRPRPRPEQVPRP	0.243
RRIRHRPPRLPRPRPRPEIWPRP	-0.0396
RRIRCRPPRLPRPRPRPDETPRP	-0.0127
RRIRCRPPRLPRPRPRPDAWPRP	0.141
RRIRPRPPRLPRPRPRPSSHPRP	-0.417
RRIRERPPRLPRPRPRPRPPPRP	0.69
RRIRIRPPRLPRPRPRPYETPRP	-0.0282
RRIRHRPPRLPRPRPRPFVKPRP	-1.48
RRIRLRPPRLPRPRPRPDIKPRP	-0.145
RRIRIRPPRLPRPRPRPPGGPRP	0.512
RRIRWRPPRLPRPRPRPETFPRP	0.0493
RRIRLRPPRLPRPRPRPKEQPRP	0.0445
RRIRFRPPRLPRPRPRPPGVPRP	0.168
RRIRCRPPRLPRPRPRPIGMPRP	-0.121
RRIRTRPPRLPRPRPRPNNWPRP	-0.12
RRIRHRPPRLPRPRPRPNLWPRP	0.173
RRIRYRPPRLPRPRPRPFQSPRP	-0.0418
RRIRCRPPRLPRPRPRPEWWPRP	-0.00726
RRIRMRPPRLPRPRPRPCYLPRP	0.0715

Sequence	shrunken log2 fold change
RRIRMRPPRLPRPRPRPSQTPRP	0.38
RRIRVRPPRLPRPRPRPYTPPRP	-0.645
RRIRWRPPRLPRPRPRPTQQPRP	-0.0891
RRIRNRPPRLPRPRPRPGYGPRP	-0.0142
RRIRARPPRLPRPRPRPAVYPRP	-0.079
RRIRVRPPRLPRPRPRPHHHPRP	-0.611
RRIRNRPPRLPRPRPRPPSCPRP	-0.134
RRIRVRPPRLPRPRPRPSNIPRP	-0.526
RRIRGRPPRLPRPRPRPWIFPRP	0.224
RRIRYRPPRLPRPRPRPACVPRP	-0.351
RRIRSRPPRLPRPRPRPCTNPRP	-0.256
RRIRYRPPRLPRPRPRPKYNPRP	-1.24
RRIRDRPPRLPRPRPRPHAMPRP	0.158
RRIRIRPPRLPRPRPRPHLVPRP	-0.573
RRIRDRPPRLPRPRPRPQESPRP	-0.257
RRIRQRPPRLPRPRPRPHHWPRP	-0.0737
RRIRNRPPRLPRPRPRPHVMPRP	-0.503
RRIRRRPPRLPRPRPRPASFPRP	0.309
RRIRHRPPRLPRPRPRPWAEPRP	-0.119
RRIRPRPPRLPRPRPRPVRWPRP	0.819
RRIRDRPPRLPRPRPRPMTVPRP	0.047
RRIRLRPPRLPRPRPRPMYGPRP	-0.179
RRIRERPPRLPRPRPRPEETPRP	-0.0248
RRIRTRPPRLPRPRPRPSSDPRP	1.82
RRIRKRPPRLPRPRPRPVRLPRP	0.203

Sequence	shrunken log2 fold change
RRIRMRPPRLPRPRPRPHHFPRP	-0.00112
RRIRNRPPRLPRPRPRPNFDPRP	0.215
RRIRSRPPRLPRPRPRPGLIPRP	0.142
RRIRYRPPRLPRPRPRPPHQPRP	0.378
RRIRMRPPRLPRPRPRPVMGPRP	0.387
RRIRQRPPRLPRPRPRPIVKPRP	-0.108
RRIRTRPPRLPRPRPRPAQIPRP	0.358
RRIRRRPPRLPRPRPRPPADPRP	0.781
RRIRPRPPRLPRPRPRPMKKPRP	-0.0723
RRIRYRPPRLPRPRPRPDDVPRP	0.0235
RRIRARPPRLPRPRPRPRPQPRP	0.731
RRIRDRPPRLPRPRPRPHFMPRP	-0.47
RRIRKRPPRLPRPRPRPACCPRP	0.192
RRIRPRPPRLPRPRPRPMFHPRP	-0.289
RRIRHRPPRLPRPRPRPPMVPRP	0.0642
RRIRLRPPRLPRPRPRPDDIPRP	-0.0521
RRIRVRPPRLPRPRPRPQRWPRP	0.496
RRIRDRPPRLPRPRPRPCARPRP	0.219
RRIRERPPRLPRPRPRPHGYPRP	0.0062
RRIRMRPPRLPRPRPRPGVPPRP	0.671
RRIRMRPPRLPRPRPRPDRDPRP	0.353
RRIRHRPPRLPRPRPRPVKSPRP	-0.0219
RRIRPRPPRLPRPRPRPFGKPRP	-0.164
RRIRCRPPRLPRPRPRPKKEPRP	0.00726
RRIRTRPPRLPRPRPRPHYDPRP	-0.302

Sequence	shrunken log2 fold change
RRIRPRPPRLPRPRPRPKWRPRP	0.0676
RRIRSRPPRLPRPRPRPSHIPRP	-0.849
RRIRCRPPRLPRPRPRPPKNPRP	0.5
RRIRRRPPRLPRPRPRPPPDPRP	1.35
RRIRTRPPRLPRPRPRPVQSPRP	-0.00991
RRIRGRPPRLPRPRPRPTGYPRP	0.559
RRIRMRPPRLPRPRPRPDCFPRP	0.0619
RRIRYRPPRLPRPRPRPAYLPRP	-0.244
RRIRIRPPRLPRPRPRPYSQPRP	-0.269
RRIRARPPRLPRPRPRPKCDPRP	0.39
RRIRSRPPRLPRPRPRPTCIPRP	0.0869
RRIRGRPPRLPRPRPRPTHNPRP	0.443
RRIRQRPPRLPRPRPRPHHPPRP	0.00343
RRIRWRPPRLPRPRPRPYNQPRP	-0.807
RRIRERPPRLPRPRPRPANGPRP	-0.042
RRIRLRPPRLPRPRPRPAAIPRP	-0.0299
RRIRWRPPRLPRPRPRPCAWPRP	0.0191
RRIRRRPPRLPRPRPRPLEFPRP	-0.0524
RRIRQRPPRLPRPRPRPRFNPRP	-0.244
RRIRIRPPRLPRPRPRPLYAPRP	-0.651
RRIRARPPRLPRPRPRPGWEPRP	0.274
RRIRARPPRLPRPRPRPDKDPRP	0.083
RRIRWRPPRLPRPRPRPLESPRP	0.176
RRIRMRPPRLPRPRPRPPRKPRP	1.49
RRIRDRPPRLPRPRPRPWQDPRP	-0.0397
